In patent publication US6489128:
Where “and” joins values, the source holds several entries; their conditions need not be identical. Identical values can stand only once.

Molecular target: trypsin
Assay: cell-based or functional assay

inhibition of trypsin hydrolysis of P-toluenesulphonyl-L-arginine methyl ester (TAME): 5 µg and 10 µg
Substance: inter-alpha trypsin inhibitor (ITI), native complex of light chain and heavy chain, affinity purified from human serum (from UniProt P19823 55-702)
